The supplement of paper PMC10567573

B1: PPEF2 (parent)
chain: DHSGFISLDEFRQTWKLFSSHMNI

Variants of: B1
Assay: protein stability index of a GFP-peptide fusion (GPS, HEK-293T) (PSI 1-6); higher = more stable
Details: c terminus: a fixed tail appended
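Also: lentivirally expressed fusions sorted by FACS into six bins by GFP to DsRed ratio, PSI derived from sequencing read proportions per bin multiplied by bin number.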

Protein stability index: each site, then its substitutions
H2: E 1.44; M 3.51; F 1.9; K 2.01; A 2.35; L 1.25; P 2.32; V 1.45; S 1.92; C 1.75; G 1.43; R 1.34; Q 1.75; I 1.91; D 1.86; N 1.14; W 1.82; Y 2.11; T 1.72
D1: W 2.08; Y 2.58; I 3.63; S 4.12; Q 2.4; E 1.4; L 3.93; G 1.47; F 2.27; K 2.64; R 1.95; T 2.84; C 2.13; N 3.49; V 2.56; P 2.12; A 1.51; H 1.38; M 1.94
F5: N 2.13; L 1.92; H 1.77; T 1.54; Q 1.73; S 1.85; E 1.65; W 1.93; G 2.5; I 1.86; C 1.66; D 1.41; V 1.53; A 1.33; M 1.4; K 1.52; R 1.28; Y 2.35; P 2.12
I6: M 2.32; K 1.94; R 2.08; S 1.75; V 1.41; W 1.82; P 2.02; T 1.71; Y 1.89; E 1.66; N 1.6; G 1.28; Q 1.91; A 1.39; L 1.65; C 1.86; H 1.71; D 1.62; F 1.03
R12: T 2.98; I 2.73; W 2.39; S 2.04; V 2.88; D 2.06; F 3.28; L 1.53; E 1.62; Y 2.69; G 2.79; N 1.81; H 1.86; A 1.87; M 2.38; Q 1.38; P 1.61; K 1.89; C 1.74
F11: C 1.94; T 1.74; R 2.01; L 3.54; D 1.61; E 2.37; V 2.07; S 1.68; A 1.32; I 1.79; G 2.52; Q 1.56; N 1.51; K 1.64; P 1.85; H 1.95; Y 2.19; M 2.14; W 1.64
D9: F 2.48; T 2.24; W 2.75; S 1.84; A 3.05; L 3.39; R 1.92; K 2.1; P 1.21; C 2.73; V 2.94; G 2.82; I 3.32; E 2.29; Y 1.51; Q 2.2; H 1.87; N 1.51; M 2.67
G4: R 1.87; M 1.65; Y 2.27; D 1.78; W 1.98; F 2.5; C 2.41; I 2.78; P 1.98; N 2.69; Q 2.47; A 2.89; V 3.22; T 1.95; E 2.16; K 1.31; S 1.51; H 2.28; L 2.95
Q13: V 2.95; T 3.18; F 3.91; H 1.87; R 2.03; P 2.35; Y 1.45; G 1.96; A 1.73; M 3.2; I 3.27; K 1.68; N 2.65; S 2.13; L 3.59
